Data: US20250171562A1

B1: CIgG4E3A1(G4S)1 (Fc fusion)
chain 1: GPPCPPCPAPEFLGGPSVFLFPPKPKDTLMISRTPEVTCVVVDVSQEDPEVQFNWYVDGVEVHNAKTKPREEQFNSTYRVVSVLTVLHQDWLNGKEYKCKVSNKGLPSSIEKTISKAKGQPREPQVYTLPPCQEEMTKNQVSLWCLVKGFYPSDIAVEWESNGQPENNYKTTPPVLDSDGSFFLYSRLTVDKSRWQEGNVFSCSVMHEALHNHYTQKSLSLSLGKGGGGSDVQLQESGGGLVQAGGSLRLACAASGRTLSSYVVSWFRQAPGKERKFVAAITWSGLSTTYLDSVQGRFTISRDNTKDTVYLQMNSLKPQDTAIYYCAAGPNIPSILRTRESEYAYWGQGTQVTVS
chain 2: GPPCPPCPAPEFLGGPSVFLFPPKPKDTLMISRTPEVTCVVVDVSQEDPEVQFNWYVDGVEVHNAKTKPREEQFNSTYRVVSVLTVLHQDWLNGKEYKCKVSNKGLPSSIEKTISKAKGQPREPQVCTLPPSQEEMTKNQVSLSCAVKGFYPSDIAVEWESNGQPENNYKTTPPVLDSDGSFFLVSRLTVDKSRWQEGNVFSCSVMHEALHNHYTQKSLSLSLGKGGGGSEVQLLESGGGLVQPGGSLRLSCAASGFTFGNYDMAWVRQAPGKRPEWVSSIDTGGDITHYADSVKGRFTISRDNAKNTLYLQMNSLRPEDTAVYWCATDEEYALGPNEFDYYGQGTLVTVSS
B2: NIgG4E3A1(G4S)2 (Fc fusion)
chain 1: DVQLQESGGGLVQAGGSLRLACAASGRTLSSYVVSWFRQAPGKERKFVAAITWSGLSTTYLDSVQGRFTISRDNTKDTVYLQMNSLKPQDTAIYYCAAGPNIPSILRTRESEYAYWGQGTQVTVSGGGGSGGGGSGPPCPPCPAPEFLGGPSVFLFPPKPKDTLMISRTPEVTCVVVDVSQEDPEVQFNWYVDGVEVHNAKTKPREEQFNSTYRVVSVLTVLHQDWLNGKEYKCKVSNKGLPSSIEKTISKAKGQPREPQVYTLPPCQEEMTKNQVSLWCLVKGFYPSDIAVEWESNGQPENNYKTTPPVLDSDGSFFLYSRLTVDKSRWQEGNVFSCSVMHEALHNHYTQKSLSLSLGK
chain 2: EVQLLESGGGLVQPGGSLRLSCAASGFTFGNYDMAWVRQAPGKRPEWVSSIDTGGDITHYADSVKGRFTISRDNAKNTLYLQMNSLRPEDTAVYWCATDEEYALGPNEFDYYGQGTLVTVSSGGGGSGGGGSGPPCPPCPAPEFLGGPSVFLFPPKPKDTLMISRTPEVTCVVVDVSQEDPEVQFNWYVDGVEVHNAKTKPREEQFNSTYRVVSVLTVLHQDWLNGKEYKCKVSNKGLPSSIEKTISKAKGQPREPQVCTLPPSQEEMTKNQVSLSCAVKGFYPSDIAVEWESNGQPENNYKTTPPVLDSDGSFFLVSRLTVDKSRWQEGNVFSCSVMHEALHNHYTQKSLSLSLGK
B3: NIgG4E4A1(RS) (Fc fusion)
chain 1: DVQLQESGGGLVQPGGSLRLSCAASGFRFSNYAMRWYRQAPGKEREFVARISSTGFITRYTASVRDRFTISRDNDKNMMYLQLNKLTPQDTAHYYCNAESTDYWGQGTQVTVSRSGPPCPPCPAPEFLGGPSVFLFPPKPKDTLMISRTPEVTCVVVDVSQEDPEVQFNWYVDGVEVHNAKTKPREEQFNSTYRVVSVLTVLHQDWLNGKEYKCKVSNKGLPSSIEKTISKAKGQPREPQVYTLPPCQEEMTKNQVSLWCLVKGFYPSDIAVEWESNGQPENNYKTTPPVLDSDGSFFLYSRLTVDKSRWQEGNVFSCSVMHEALHNHYTQKSLSLSLGK
chain 2: EVQLLESGGGLVQPGGSLRLSCAASGFTFGNYDMAWVRQAPGKRPEWVSSIDTGGDITHYADSVKGRFTISRDNAKNTLYLQMNSLRPEDTAVYWCATDEEYALGPNEFDYYGQGTLVTVSSRSGPPCPPCPAPEFLGGPSVFLFPPKPKDTLMISRTPEVTCVVVDVSQEDPEVQFNWYVDGVEVHNAKTKPREEQFNSTYRVVSVLTVLHQDWLNGKEYKCKVSNKGLPSSIEKTISKAKGQPREPQVCTLPPSQEEMTKNQVSLSCAVKGFYPSDIAVEWESNGQPENNYKTTPPVLDSDGSFFLVSRLTVDKSRWQEGNVFSCSVMHEALHNHYTQKSLSLSLGK
B4: CIgG4E3A1(G4S)2 (Fc fusion)
chain 1: GPPCPPCPAPEFLGGPSVFLFPPKPKDTLMISRTPEVTCVVVDVSQEDPEVQFNWYVDGVEVHNAKTKPREEQFNSTYRVVSVLTVLHQDWLNGKEYKCKVSNKGLPSSIEKTISKAKGQPREPQVYTLPPCQEEMTKNQVSLWCLVKGFYPSDIAVEWESNGQPENNYKTTPPVLDSDGSFFLYSRLTVDKSRWQEGNVFSCSVMHEALHNHYTQKSLSLSLGKGGGGSGGGGSDVQLQESGGGLVQAGGSLRLACAASGRTLSSYVVSWFRQAPGKERKFVAAITWSGLSTTYLDSVQGRFTISRDNTKDTVYLQMNSLKPQDTAIYYCAAGPNIPSILRTRESEYAYWGQGTQVTVS
chain 2: GPPCPPCPAPEFLGGPSVFLFPPKPKDTLMISRTPEVTCVVVDVSQEDPEVQFNWYVDGVEVHNAKTKPREEQFNSTYRVVSVLTVLHQDWLNGKEYKCKVSNKGLPSSIEKTISKAKGQPREPQVCTLPPSQEEMTKNQVSLSCAVKGFYPSDIAVEWESNGQPENNYKTTPPVLDSDGSFFLVSRLTVDKSRWQEGNVFSCSVMHEALHNHYTQKSLSLSLGKGGGGSGGGGSEVQLLESGGGLVQPGGSLRLSCAASGFTFGNYDMAWVRQAPGKRPEWVSSIDTGGDITHYADSVKGRFTISRDNAKNTLYLQMNSLRPEDTAVYWCATDEEYALGPNEFDYYGQGTLVTVSS
B5: CIgG4E3A1(RS) (Fc fusion)
chain 1: GPPCPPCPAPEFLGGPSVFLFPPKPKDTLMISRTPEVTCVVVDVSQEDPEVQFNWYVDGVEVHNAKTKPREEQFNSTYRVVSVLTVLHQDWLNGKEYKCKVSNKGLPSSIEKTISKAKGQPREPQVYTLPPCQEEMTKNQVSLWCLVKGFYPSDIAVEWESNGQPENNYKTTPPVLDSDGSFFLYSRLTVDKSRWQEGNVFSCSVMHEALHNHYTQKSLSLSLGKRSDVQLQESGGGLVQAGGSLRLACAASGRTLSSYVVSWFRQAPGKERKFVAAITWSGLSTTYLDSVQGRFTISRDNTKDTVYLQMNSLKPQDTAIYYCAAGPNIPSILRTRESEYAYWGQGTQVTVS
chain 2: GPPCPPCPAPEFLGGPSVFLFPPKPKDTLMISRTPEVTCVVVDVSQEDPEVQFNWYVDGVEVHNAKTKPREEQFNSTYRVVSVLTVLHQDWLNGKEYKCKVSNKGLPSSIEKTISKAKGQPREPQVCTLPPSQEEMTKNQVSLSCAVKGFYPSDIAVEWESNGQPENNYKTTPPVLDSDGSFFLVSRLTVDKSRWQEGNVFSCSVMHEALHNHYTQKSLSLSLGKRSEVQLLESGGGLVQPGGSLRLSCAASGFTFGNYDMAWVRQAPGKRPEWVSSIDTGGDITHYADSVKGRFTISRDNAKNTLYLQMNSLRPEDTAVYWCATDEEYALGPNEFDYYGQGTLVTVSS
B6: NIgG4E3A1(G4S)3 (Fc fusion)
chain 1: DVQLQESGGGLVQAGGSLRLACAASGRTLSSYVVSWFRQAPGKERKFVAAITWSGLSTTYLDSVQGRFTISRDNTKDTVYLQMNSLKPQDTAIYYCAAGPNIPSILRTRESEYAYWGQGTQVTVSGGGGSGGGGSGGGGSGPPCPPCPAPEFLGGPSVFLFPPKPKDTLMISRTPEVTCVVVDVSQEDPEVQFNWYVDGVEVHNAKTKPREEQFNSTYRVVSVLTVLHQDWLNGKEYKCKVSNKGLPSSIEKTISKAKGQPREPQVYTLPPCQEEMTKNQVSLWCLVKGFYPSDIAVEWESNGQPENNYKTTPPVLDSDGSFFLYSRLTVDKSRWQEGNVFSCSVMHEALHNHYTQKSLSLSLGK
chain 2: EVQLLESGGGLVQPGGSLRLSCAASGFTFGNYDMAWVRQAPGKRPEWVSSIDTGGDITHYADSVKGRFTISRDNAKNTLYLQMNSLRPEDTAVYWCATDEEYALGPNEFDYYGQGTLVTVSSGGGGSGGGGSGGGGSGPPCPPCPAPEFLGGPSVFLFPPKPKDTLMISRTPEVTCVVVDVSQEDPEVQFNWYVDGVEVHNAKTKPREEQFNSTYRVVSVLTVLHQDWLNGKEYKCKVSNKGLPSSIEKTISKAKGQPREPQVCTLPPSQEEMTKNQVSLSCAVKGFYPSDIAVEWESNGQPENNYKTTPPVLDSDGSFFLVSRLTVDKSRWQEGNVFSCSVMHEALHNHYTQKSLSLSLGK
B7: NIgG4E3A1(G4S)1 (Fc fusion)
chain 1: DVQLQESGGGLVQAGGSLRLACAASGRTLSSYVVSWFRQAPGKERKFVAAITWSGLSTTYLDSVQGRFTISRDNTKDTVYLQMNSLKPQDTAIYYCAAGPNIPSILRTRESEYAYWGQGTQVTVSGGGGSGPPCPPCPAPEFLGGPSVFLFPPKPKDTLMISRTPEVTCVVVDVSQEDPEVQFNWYVDGVEVHNAKTKPREEQFNSTYRVVSVLTVLHQDWLNGKEYKCKVSNKGLPSSIEKTISKAKGQPREPQVYTLPPCQEEMTKNQVSLWCLVKGFYPSDIAVEWESNGQPENNYKTTPPVLDSDGSFFLYSRLTVDKSRWQEGNVFSCSVMHEALHNHYTQKSLSLSLGK
chain 2: EVQLLESGGGLVQPGGSLRLSCAASGFTFGNYDMAWVRQAPGKRPEWVSSIDTGGDITHYADSVKGRFTISRDNAKNTLYLQMNSLRPEDTAVYWCATDEEYALGPNEFDYYGQGTLVTVSSGGGGSGPPCPPCPAPEFLGGPSVFLFPPKPKDTLMISRTPEVTCVVVDVSQEDPEVQFNWYVDGVEVHNAKTKPREEQFNSTYRVVSVLTVLHQDWLNGKEYKCKVSNKGLPSSIEKTISKAKGQPREPQVCTLPPSQEEMTKNQVSLSCAVKGFYPSDIAVEWESNGQPENNYKTTPPVLDSDGSFFLVSRLTVDKSRWQEGNVFSCSVMHEALHNHYTQKSLSLSLGK
B8: CIgG4E3A1(G4S)3 (Fc fusion)
chain 1: GPPCPPCPAPEFLGGPSVFLFPPKPKDTLMISRTPEVTCVVVDVSQEDPEVQFNWYVDGVEVHNAKTKPREEQFNSTYRVVSVLTVLHQDWLNGKEYKCKVSNKGLPSSIEKTISKAKGQPREPQVYTLPPCQEEMTKNQVSLWCLVKGFYPSDIAVEWESNGQPENNYKTTPPVLDSDGSFFLYSRLTVDKSRWQEGNVFSCSVMHEALHNHYTQKSLSLSLGKGGGGSGGGGSGGGGSDVQLQESGGGLVQAGGSLRLACAASGRTLSSYVVSWFRQAPGKERKFVAAITWSGLSTTYLDSVQGRFTISRDNTKDTVYLQMNSLKPQDTAIYYCAAGPNIPSILRTRESEYAYWGQGTQVTVS
chain 2: GPPCPPCPAPEFLGGPSVFLFPPKPKDTLMISRTPEVTCVVVDVSQEDPEVQFNWYVDGVEVHNAKTKPREEQFNSTYRVVSVLTVLHQDWLNGKEYKCKVSNKGLPSSIEKTISKAKGQPREPQVCTLPPSQEEMTKNQVSLSCAVKGFYPSDIAVEWESNGQPENNYKTTPPVLDSDGSFFLVSRLTVDKSRWQEGNVFSCSVMHEALHNHYTQKSLSLSLGKGGGGSGGGGSGGGGSEVQLLESGGGLVQPGGSLRLSCAASGFTFGNYDMAWVRQAPGKRPEWVSSIDTGGDITHYADSVKGRFTISRDNAKNTLYLQMNSLRPEDTAVYWCATDEEYALGPNEFDYYGQGTLVTVSS

molecular target: mixture of three Der p 2 specific recombinant human IgE clones H10, H12, P4E (human) (UniProt P01854); experiment: RBL-SX38 IgE displacement, FACS
Sequence (P01854 other isoform, or with tags, fused parts or gaps): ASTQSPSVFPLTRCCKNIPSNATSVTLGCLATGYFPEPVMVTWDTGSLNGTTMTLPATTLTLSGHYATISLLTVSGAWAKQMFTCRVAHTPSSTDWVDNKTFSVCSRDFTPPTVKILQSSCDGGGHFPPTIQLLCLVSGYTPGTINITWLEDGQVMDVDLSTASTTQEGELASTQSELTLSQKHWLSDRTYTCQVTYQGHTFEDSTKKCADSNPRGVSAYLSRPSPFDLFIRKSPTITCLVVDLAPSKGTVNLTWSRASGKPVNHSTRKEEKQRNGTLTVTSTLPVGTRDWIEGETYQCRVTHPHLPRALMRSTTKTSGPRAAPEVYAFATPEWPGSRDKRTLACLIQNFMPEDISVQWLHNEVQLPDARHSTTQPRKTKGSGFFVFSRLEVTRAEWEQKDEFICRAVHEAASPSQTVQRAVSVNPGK

Row | EC50 [nM] | Max effect/effect 1 µM [%] | Binder
1 | 277 | 76 | B1
2 | 2.1 | 99 | B2
3 | 6.2 | 90 | B3
4 | 172 | 94 | B4
5 | – | 21 | B5
6 | 2.2 | 97 | B6
7 | 2 | 99 | B7
8 | 162 | 73 | B8
